In patent US20250136687A1 (SHANDONG SIMCERE BIOPHARMACEUTICAL, published 2025):
Where two headings read alike, the source gives them in different places.

B1: SP34-hIgG1 (antibody)
heavy: not shown
light: QAVVTQESALTTSPGETVTLTCRSSTGAVTTSNYANWVQEKPDHLFTGLIGGTNKRAPGVPARFSGSLIGDKAALTITGAQTEDEAIYFCALWYSNLWVFGGGTKLTVLRTVAAPSVFIFPPSDEQLKSGTASVVCLLNNFYPREAKVQWKVDNALQSGNSQESVTEQDSKDSTYSLSSTLTLSKADYEKHKVYACEVTHQGLSSPVTKSFNRGEC
notes: Positive control
B2: 7-35.6 human-murine chimeric antibody (antibody, human IgG1, lambda, V domains shown)
VH: EVQLVESGGGLVQPKGSLKLSCAASGFTFNTYAMNWVRQAPGKGLEWVGRIRSKINNYATYYGDSVKDRFTISRDDSQSMFYLQMNNLKTEDTAMYYCVIHENYGSISWFAYWGQGTLVTVSA
VL: QAVVTQESTLTTSPGETVTLTCRSSTGAVTTSNYANWVQEKPDHLFTGLIGGTNNRAPGVPARFSGSLIGDKAALTITGAQTEDEAIYFCALWYSNHWVFGGGTKLTVLG
notes: Human IgG1 chimera

Tests used:
[1] = biological target: T1, human CD3 on the cell surface (Jurkat cells, expanded human T cells, Jurkat-Lucia NFAT cells, human PBMC) (human, UniProt P07766 23-207; P04234 22-171; P09693 23-182); assay: FACS, expanded human T cells
T1 construct: whole, on cells; Endogenous CD3 within the TCR-CD3 complex on cells (also zeta chains and TCR); the cell type is named under assay
T1 sequence (P07766 23-207, chain 1 of 3): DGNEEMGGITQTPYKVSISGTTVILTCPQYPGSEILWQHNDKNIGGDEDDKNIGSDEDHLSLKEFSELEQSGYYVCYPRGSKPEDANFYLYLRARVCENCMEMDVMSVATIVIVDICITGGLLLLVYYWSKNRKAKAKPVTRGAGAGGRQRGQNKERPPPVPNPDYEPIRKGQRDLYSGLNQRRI
T1 sequence (P04234 22-171, chain 2 of 3): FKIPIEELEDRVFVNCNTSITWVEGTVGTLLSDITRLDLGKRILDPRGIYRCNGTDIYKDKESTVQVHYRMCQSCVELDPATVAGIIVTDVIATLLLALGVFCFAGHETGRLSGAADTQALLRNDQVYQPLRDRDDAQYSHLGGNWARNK
T1 sequence (P09693 23-182, chain 3 of 3): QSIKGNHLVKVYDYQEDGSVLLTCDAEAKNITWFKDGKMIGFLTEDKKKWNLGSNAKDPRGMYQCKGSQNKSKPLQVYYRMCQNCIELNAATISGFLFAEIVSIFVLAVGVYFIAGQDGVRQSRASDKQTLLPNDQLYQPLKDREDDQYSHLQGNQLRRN

[2] = biological target: T1, human CD3 on the cell surface (Jurkat …); assay: FACS, Jurkat cells
Description: Suspension cells Jurkat cells (purchased from Cell bank of Chinese Academy of Sciences) were scale-up cultured in T-175 cell culture flasks to the logarithmic growth phase, the supernatant of the medium was discarded by centrifugation, and the cell pellet was washed 2 times with PBS. After counting the cells in the previous step, the cell pellet was resuspended with [PBS+2% (w/v) FBS] blocking solution to 4×10⁶ cells/ml, and added to a 96-well FACS reaction plate at 50 μl/well, the supernatant was removed by centrifugation, detection antibodies (initial concentration of […], gradient dilution at 1:5) and an IgG negative control were added at 100 μl/well, the cells were uniformly mixed, and incubated on ice for 1 h. The cells were centrifuged and washed 3 times with a PBS buffer. […] The cells were centrifuged and washed 5 times with a PBS buffer, and FACS (FACS Canto II, purchased from BD Company) was used for detection and result analysis. Data analysis was performed by software (CellQuest) to obtain the mean fluorescence intensity (MFI) of the cells. And then software (GraphPad Prism8) was used for analysis, data fitting, and EC50 value calculation.

[3] = biological target: T2, cynomolgus monkey CD3 on the surface of expanded monkey T cells (cynomolgus monkey, UniProt Q95LI5 22-198; Q95LI8 22-171; Q95LI7 23-181); assay: FACS, expanded monkey T cells
T2 construct: whole, on cells; Endogenous CD3 within the TCR-CD3 complex on T cells expanded from cynomolgus monkey PBMC
T2 sequence (Q95LI5 22-198, chain 1 of 3): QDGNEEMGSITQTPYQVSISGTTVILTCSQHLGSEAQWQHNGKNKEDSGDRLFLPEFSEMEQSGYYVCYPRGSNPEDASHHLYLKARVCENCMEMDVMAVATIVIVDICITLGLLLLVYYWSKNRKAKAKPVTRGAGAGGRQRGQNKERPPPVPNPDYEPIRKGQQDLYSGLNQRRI
T2 sequence (Q95LI8 22-171, chain 2 of 3): as the sequence (P04234 22-171, chain 2 of 3) above, with I5V, N15K, I20V, S32T, D33N, I34N, T64A, S74N, V83L, H141R counted along it
T2 sequence (Q95LI7 23-181, chain 3 of 3): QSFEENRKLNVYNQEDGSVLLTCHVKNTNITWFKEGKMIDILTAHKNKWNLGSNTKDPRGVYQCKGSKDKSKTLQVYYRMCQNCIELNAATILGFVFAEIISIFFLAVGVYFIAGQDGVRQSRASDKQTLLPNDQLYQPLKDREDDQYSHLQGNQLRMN
Description: (§1) The binding of the chimeric antibodies to CD3 on the cell surface was analyzed by detecting the binding of the antibodies to Jurkat cells and human T cells. Suspension cells Jurkat cells were scale-up cultured in T-75 cell culture flasks to the logarithmic growth phase, the supernatant of the medium was discarded by centrifugation, and the cell pellet was washed 2 times with PBS for later use. The expanded human T cells were washed 2 times with PBS for later use. After counting the cells in the previous step, the cell pellet was resuspended with [PBS+2% (w/w) BSA] blocking solution to 4×10⁶ cells/ml, and added to a 96-well FACS reaction plate at 50 μl/well, and then the chimeric antibody to be tested was added at 50 μl/well, and incubated at 4° C. for 1 h. The cells were centrifuged and washed 3 times with a PBS buffer. […] The cells were centrifuged and washed 5 times with PBS, and FACS (FACS Canto™, purchased from BD Company) was used for detection and result analysis. Data analysis was performed by software (CellQuest) to obtain the mean fluorescence […] (MFI) of the cells. And then software (GraphPad Prism8) was used for analysis, data fitting, and EC50 value calculation. The same method was used to simultaneously detect the binding of the chimeric antibodies to endogenous CD3 negative cells MOLT4 cells.
FACS detection and data analysis were performed on the cryopreserved monkey T cells of Example 2.4 according to the method in Example 5.1.

[4] = biological target: T1, human CD3 on the cell surface (Jurkat …); assay: FACS, Jurkat cells; remark: listed apart in the source
Description: as §1

[5] = biological target: T1, human CD3 on the cell surface (Jurkat …); assay: FACS, expanded human T cells; remark: listed apart in the source
Description: as §1

[6] = biological target: T2, cynomolgus monkey CD3 on the surface of …; assay: FACS, expanded monkey T cells; remark: listed apart in the source
[7] = biological target: T1, human CD3 on the cell surface (Jurkat …); assay: FACS, expanded human T cells; remark: listed apart in the source
Description: as §1

[8] = biological target: T1, human CD3 on the cell surface (Jurkat …); assay: FACS, Jurkat cells; remark: listed apart in the source
Description: as §1

[9] = biological target: T2, cynomolgus monkey CD3 on the surface of …; assay: FACS, expanded monkey T cells; remark: listed apart in the source
Description: as §1, with “MOLT4 cells. […]” for “MOLT4 cells.”

[10] = biological target: T3, recombinant human CD3ε-ECD His protein (human, UniProt P07766 23-126); assay: SPR (Biacore), antibody captured on Protein A chip
T3 construct: extracellular domain; also called human CD3ε-His; CD3ε antigen protein; not shown: His tag
T3 sequence (P07766 23-126): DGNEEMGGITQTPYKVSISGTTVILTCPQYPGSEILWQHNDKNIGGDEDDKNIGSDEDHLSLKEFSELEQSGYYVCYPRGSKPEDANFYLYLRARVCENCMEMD
Description: Sample buffer and running buffer were HBS-EP+(10 mM HEPES, 150 mM NaCl, 3 mM EDTA, 0.05% surfactant P20) (GE Healthcare; BR-1006-69). The flow-through cell was set to 25° C. The sample block was set to 16° C. Both were pretreated with the running buffer. In each cycle, the antibody to be detected was first captured with a Protein A chip, and then a single concentration of CD3ε antigen protein (purchased from Sino Biological, Inc. (China), catalog number: 10977-H08H) was injected. The binding and dissociation processes of the antibody and the antigen protein were recorded, and finally a glycine solution (pH 1.5, GE Healthcare; BR-1003-54) was used to complete chip regeneration. The binding was measured by injecting different concentrations of recombinant human CD3ε-ECD His proteins in a solution for 240 s with a flow rate of 30 μL/min. The concentration started from 200 nM (see the detailed results for the actual concentration in the test) and was diluted at 1:1, making a total of 5 concentrations. The dissociation phase was monitored for up to 600 s and was triggered by switching from sample solution to running buffer. The surface was regenerated by washing with a 10 mM glycine solution (pH 1.5) for 30 s at a flow rate of 30 μL/min. Bulk refractive index difference was corrected by subtracting the response obtained from the goat anti-human Fc surface. Blank injection was also subtracted (=double reference). For calculation of apparent KD and other kinetic parameters, Langmuir 1:1 model was used.

[11] = biological target: T1, human CD3 on the cell surface (Jurkat …); assay: cell-based or functional assay

Binder	EC50 [1]	EC50 [2]	EC50 [3]	MFI_Max [3]	EC50 [4]	MFI_Max [4]	EC50 [5]	MFI_Max [5]	EC50 [6]	EC50 [7]	MFI_Max [7]	EC50 [8]	MFI_Max [8]	EC50 [9]	Kd [10]	koff [10]	kon [10]	EC50 (nM), luciferase reporter, Jurkat-Lucia NFAT cells [11]	Maximum response value (RLU) [11]
B1	2.54 nM	0.45 nM	0.27 nM	64700 MFI	0.13 nM	7020 MFI	0.43 nM	43100 MFI	0.49 nM	–	–	–	–	–	–	–	–	–	–
B2	–	–	–	–	–	–	–	–	–	4.62 nM	3800 MFI	3.37 nM	2800 MFI	2.74 nM	0.959 nM	0.000261 s⁻¹	272000 M⁻¹ s⁻¹	11.8 nM	8570 RLU
